Experimental data from patent US9498540B2, “Cell proliferation inhibitors and conjugates thereof” (NOVARTIS AG, priority 2013, dated 2016).

Key:
[1] = Average drug loading (DAR, drug to antibody ratio) from LC/MS of reduced, deglycosylated conjugates; conditions: conjugate with trastuzumab (TBS); average number of payload molecules per antibody
Description: The immunoconjugates prepared as described above were characterized by LC/MS, as illustrated in FIG. 1 for one immunoconjugate. […] The conjugates were characterized in terms of average drug loading for a sample (DAR, drug to antibody ratio) and aggregation (expressed in %).
The DAR value is extrapolated from LC-MS data for reduced and deglycosylated samples. […] HPLC separates the antibody into light and heavy chains, and separates the heavy chain (HC) and light chain (LC) according to the number of Linker-Payload groups per chain. Mass spectral data enables identification of the component species in the mixture, e.g., LC, LC+1, LC+2, HC, HC+1, HC+2, etc. From the average loading on the LC and HC chains, the average drug to antibody ratio (DAR) can be calculated for an ADC (see FIG. 1B). The DAR for a given conjugate sample represents the average number of drug (payload) molecules attached to a tetrameric antibody containing two light chains and two heavy chains.

[2] = Aggregation of immunoconjugates by analytical size exclusion chromatography; format: physicochemical; conditions: conjugate with trastuzumab (TBS); Superdex 200 5/150 GL run in PBS
Protocol: Aggregation was measured by analytical size exclusion chromatography (Superdex 200 5/150 GL run in PBS). It was observed that the extent of aggregation depends on the Linker-Payload and the DAR. […] Table 4 also indicates whether the linking group for each conjugate is stable or cleavable.

| SMILES | DAR [1] | Aggregation % [2] [%] |
| --- | --- | --- |
| O=C([C@H]1CNCCO1)N(C[C@@H]1CNC[C@@H]1F)[C@@H](c1nc(-c2cc(F)ccc2F)cn1Cc1ccccc1)C1CCOCC1 [Compound 69] | 6 | 4.9 |
| C[C@@H]1CN(C(=O)N(CC[C@H](N)CF)[C@@H](c2nc(-c3cc(F)cc(F)c3)nn2Cc2ccccc2)C(C)(C)C)C[C@H](C)O1 [Compound 52] | 5.2 | 47.4 |
| C[C@H](O)C(=O)N(CC[C@H](N)CF)[C@H](c1nc(-c2cc(F)ccc2F)cn1Cc1ccccc1)C1CCS(=O)(=O)CC1 [Compound 24] | 1.2 | 54.2 |
| CSCCC(=O)N(C[C@@H]1CNC[C@@H]1F)[C@@H](c1nc(-c2cc(F)ccc2F)cn1Cc1cccc(F)c1)C(C)(C)C [Compound 9] | 6 | 84.9 |
| CC(C)(C)[C@H](c1nc(-c2cc(F)ccc2F)cn1Cc1ccccc1)N(CC[C@H]1COCCN1)C(=O)N1CCOCC1 [Compound 63] | 4 | 53.2 |
| C[C@@H](CN)NC(=O)N(C[C@@H]1CNC[C@@H]1F)[C@@H](c1nc(-c2cc(F)ccc2F)cn1Cc1ccccc1)C1CCOCC1 [Compound 19] | 4.7 | 74.6 |
| C[C@H](O)C(=O)N(C[C@@H]1CNC[C@@H]1F)[C@H](c1nc(-c2cc(F)ccc2F)cn1Cc1ccccc1)C1CCS(=O)(=O)CC1 [Compound 47] | 5.1 | 65.2 |
| CNC(=O)N(CC[C@@H](N)CF)[C@@H](c1nc(-c2cc(F)ccc2F)cn1Cc1ccccc1)C(C)(C)C [Compound 27] | 3.4 | 12.1 |
| O=C(NCCO)N(C[C@@H]1CNC[C@@H]1F)[C@@H](c1nc(-c2cc(F)ccc2F)cn1Cc1ccccc1)C1CCOCC1 [Compound 58] | 5.3 | 59.4 |
| CSCCC(=O)N(C[C@@H]1CNC[C@@H]1F)[C@@H](c1nc(-c2cc(F)ccc2F)cn1Cc1ccccc1)C1CCOCC1 [Compound 39] | 3.2 | 68.5 |
| C[C@H](O)C(=O)N(C[C@@H]1CNC[C@@H]1F)[C@@H](c1nc(-c2cc(F)ccc2F)cn1Cc1ccccc1)C(C)(C)C [Compound 72] | 5.2 | 45 |
| COC(C)(C)[C@H](c1nc(-c2cc(Cl)ccc2F)cn1Cc1cccc(F)c1)N(C[C@@H]1CN[C@H](CF)C1)C(=O)[C@@H]1CCCO1 [Compound 13] | 5.8 | 0.7 |
| O=C(NC[C@@H](O)CO)N(C[C@@H]1CNC[C@@H]1F)[C@@H](c1nc(-c2cc(F)ccc2F)cn1Cc1ccccc1)C1CCOCC1 [Compound 68] | 4.6 | 62.6 |
| C[C@H](O)C(=O)N(CCCN)[C@@H](c1nc(-c2cc(F)ccc2F)cn1Cc1ccccc1)C(C)(C)C [Compound 20] | 5.2 | 63.5 |
| CC(C)(C)[C@H](c1nc(-c2cc(F)ccc2F)nn1Cc1ccccc1)N(CCCN)C(=O)N1CCOCC1 [Compound 61] | 2 | 46.1 |
| C[C@H](O)C(=O)N(C[C@@H]1CNC[C@@H]1F)[C@@H](c1nc(-c2cc(F)ccc2F)cn1Cc1ccccc1)C1CCOCC1 [Compound 12] | 5 | 4.7 |
| O=C(CCS)N(C[C@@H]1CNC[C@@H]1F)[C@@H](c1nc(-c2cc(F)ccc2F)cn1Cc1ccccc1)C1CCOCC1 [Compound 15] | 3.7 | 3.5 |
| C[C@H](O)C(=O)N(C[C@@H]1CNC[C@@H]1F)[C@@H](c1nc(-c2cc(F)ccc2F)cn1Cc1cccc(N)n1)C1CCOCC1 [Compound 66] | 3.6 | 64.5 |
| O=C([C@@H]1CNCCO1)N(C[C@@H]1CNC[C@@H]1F)[C@@H](c1nc(-c2cc(F)ccc2F)cn1Cc1ccccc1)C1CCOCC1 [Compound 70] | 6.5 | 16.9 |
| C[C@H](O)C(=O)N(CCCN)[C@@H](c1nc(-c2cc(F)ccc2F)nn1Cc1ccccc1)C(C)(C)C [Compound 7] | 2.7 | 44.4 |
| CC(C)(C)[C@@H](NC(=O)c1csc(CN)n1)c1nc(-c2cc(F)ccc2F)cn1Cc1ccccc1 [Compound 45] | 4.8 | 22 |
| CC(C)(C)[C@H](c1nc(-c2cc(F)ccc2F)cn1Cc1ccccc1)N(CC[C@@H](N)CF)C(=O)c1cccnc1 [Compound 51] | 5.6 | 56.5 |
| C[C@H](O)C(=O)N(CC[C@H](N)CF)[C@@H](c1nc(-c2cc(F)ccc2F)cn1Cc1cccc(F)c1)C(C)(C)C [Compound 73] | 4.5 | 60 |
| O=C(CI)N(C[C@@H]1CNC[C@@H]1F)[C@@H](c1nc(-c2cc(F)ccc2F)cn1Cc1ccccc1)C1CCOCC1 [Compound 25] | 2.2 | 60.8 |
| CC(C)(C)[C@H](c1nc(-c2cc(F)ccc2F)nn1Cc1ccccc1)N(CC[C@@H](N)CF)C(=O)N1CCSCC1 [Compound 43] | 6.1 | 7.7 |
| CC(C)(C)[C@H](c1nc(-c2cc(F)ccc2F)nn1Cc1ccccc1)N(CCCN)C(=O)CO [Compound 50] | 2.8 | 40 |
| C[C@H](O)C(=O)N(CC[C@H](N)CF)[C@@H](c1nc(-c2cc(F)ccc2F)cn1Cc1ccccc1)C1CCS(=O)(=O)CC1 [Compound 37] | 5.6 | 68 |
| C[C@H](O)C(=O)N(CC[C@H](N)CF)[C@@H](c1nc(-c2cc(F)cc(F)c2F)cn1Cc1ccccc1)C(C)(C)C [Compound 62] | 2 | 48.7 |
